The record followed here is the supplement of paper PMC12764529.

± gives the half width of the 95% confidence interval.

The nature of data set [1]: folding stability dG unfold from trypsin proteolysis; higher = more stable. A digest of the protocol: (§1)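 Bayesian fitting of sequencing counts gave K50 for each design. Unfolding free energy followed by setting this against a sequence-predicted unfolded-state K50 and a shared folded-state K50, either per protease or with trypsin and chymotrypsin combined. The designs, under 80 residues and lacking cysteine, were digested in a PA-tagged cDNA display format at 11 threefold-diluted protease concentrations and without protease, and only those with AlphaFold2 dimer inter-PAE above 15 were kept.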

Data set [2] can be described thus: folding stability dG unfold from chymotrypsin proteolysis; higher = more stable. A digest of the protocol: as §1
The nature of data set [3]: folding stability dG unfold (combined trypsin and chymotrypsin); higher = more stable. A digest of the protocol: as §1

As for “SMKIEVSGGNVTVEMYMWRRKKERDPDDPGKERDQPEPMPQTHTIDPNDPEAAKKFLDKFPPGFRPEIHDSA [r9_476_TrROS]”, the “folding stability dG unfold” value in data set [1] was determined as 2.48 ± 0.795 kJ/mol; in data set [2], 0.375 ± 1.8 kJ/mol; in data set [3], 1.87 ± 1.05 kJ/mol.
On the same counts, the results for “SMKIKIKVETNPNGEKKIEIEIELKEEDIEFDEGMTLEERKEKLRELAEELAKKLKEEGKEVKIVEIEVESA [r9_751_TrROS_Hall]” are 7.51 ± 0.28 kJ/mol, 9.48 ± 0.201 kJ/mol and 8.8 ± 0.711 kJ/mol.
“SMKIKIPVLIKVDPSETIEEVLEKVKEIAEEIAKFLESKGGPVEVKADVEPIPEIDYVIVTVEAYVPEEASA [r9_1161_TrMRF]”: the results for the “folding stability dG unfold” value in data set [1], in data set [2] and in data set [3] were 6.39 ± 0.314 kJ/mol, 7.53 ± 0.343 kJ/mol and 6.45 ± 0.711 kJ/mol, respectively.
As to “SMKIKIYVAPPGYVVVRITGPNGFYIPIPAKDPDEAKAKLEELINNLQERNGHKPDIDVVPFPPGQEIGDSA [r9_786_TrROS]”, the “folding stability dG unfold” value in data set [1] came out at 5.81 ± 0.184 kJ/mol; in data set [2], 9.3 ± 0.418 kJ/mol; in data set [3] it was 8.08 ± 0.628 kJ/mol.
On the same counts, the results for “SMKIPGMSAKEKLRKAIEALLEEAEKKGIKEITIKIYNKKTKKPIKEIKFKSKEELLKKIEEGDEVEIEFSA [r9_718_TrROS_Hall]” are 8.77 ± 0.188 kJ/mol, 7.17 ± 0.255 kJ/mol and 7.65 ± 0.544 kJ/mol.
The matching figures for “SMKIPVKTNDPEALKELLNKIKEILEKAKEKGYEIFPIPIILDNGKEIIFPIDPNDKIEEVIKKIEEALKSA [r9_127_TrMRF]”: 11.3 ± 0.628 kJ/mol, 5.77 ± 0.406 kJ/mol and 8.44 ± 0.962 kJ/mol.
The matching figures for “SMKITEIEPDGDGTLEIEIPVEAPPGMDPDEVQIYVMSDDGIRHVRITPNGTVEITIENIPDIRIYIFVHSA [r9_722_TrROS]”: 7.51 ± 0.213 kJ/mol, 10.3 ± 0.305 kJ/mol and 9.45 ± 0.331 kJ/mol.
On to “SMKITTDPVNKTISATFPPGTDPLAETQKIVDEVKKKENSGDITITFSTGNTTINYTLGTNTVTTTPAGTSA [r9_224_JUSTAS]”, for which the entries for the “folding stability dG unfold” value in data set [1], in data set [2] and in data set [3] were -0.241 ± 0.264 kJ/mol, -1.47 ± 0.795 kJ/mol and -0.399 ± 0.402 kJ/mol, respectively.
The matching figures for “SMKIVEVEVFEDPETGKLVVIVKLDGEEVVEVEEGEKVEIEVEPGDTLLVFVVDAETGEIKEEKEIKVEESA [r9_209_TrROS_Hall]”: 2.26 ± 0.502 kJ/mol, 5.02 ± 0.502 kJ/mol and 4.66 ± 0.669 kJ/mol.
The matching figures for “SMKIVIVKNKDGTVIVRITFPNGEEITITAKTEEEAKKAIEELIKKLQEKYNIKIKIEVKPVKPGEVIEESA [r9_786_TrROS_Hall]”: 12.2 ± 0.389 kJ/mol, 11.9 ± 0.335 kJ/mol and 12.2 ± 0.628 kJ/mol.
The matching figures for “SMKIYKTKEEAEKAAKETGKKVIVIKKGMSLEELLELLKKLKGLKEGQKVILVIQNEDGETYVIVLEIKPSA [r9_314_TrROS_Hall]”: 7.6 ± 0.414 kJ/mol, 6 ± 0.544 kJ/mol and 7.3 ± 0.711 kJ/mol.
For the sequence “SMKKKVVVKAKIEKIRPDGGKEELEEVFVMEVSPDDPEEIKAAIDEAIEALKKAYPNIKKIEIEEVIIEDSA [r9_436_TrMRF]”, the “folding stability dG unfold” value came to 15.9 ± 1 kJ/mol in data set [1], 14.1 ± 0.879 kJ/mol in data set [2] and 15.9 ± 1.51 kJ/mol in data set [3].
Take “SMKKTIIIKVKKEDMTPEEIAKKLAELGYEVEIVDVEYDEETEEVYITVEIYDENGELIEKIEIKLPRKDSA [r9_879_TrROS_Hall]”: the “folding stability dG unfold” value in data set [1] turned out to be 3.45 ± 0.669 kJ/mol; in data set [2], 4 ± 0.711 kJ/mol; in data set [3], 3.83 ± 1.76 kJ/mol.
The matching figures for “SMKKTYTFPVTLVPKDGKASLTVNWYAPDGTSLGTQTKSASAEGNTVTATVTVTVDAPPGAKIPSITVNASA [r9_292_JUSTAS]”: 0.381 ± 0.172 kJ/mol, 1.98 ± 0.218 kJ/mol and 1.48 ± 0.159 kJ/mol.
As to “SMKKVLIVTPNPEINPEEVVKALKEKGFKEIKVFSTPEELKEALPEYDIVIIEENGKLYIKYIPPGKLAKSA [r9_750_TrMRF]”, the “folding stability dG unfold” value in data set [1] amounted to 1.4 ± 0.711 kJ/mol; in data set [2], 7.49 ± 0.502 kJ/mol; in data set [3], 5.64 ± 1.13 kJ/mol.
For the sequence “SMKLIGVEEFENAKAVLFEKEDKYIKLVFIPEDIPEGEEIYYIKVFEGDEIIEEKAVKPEEIEEAIKEAGSA [r9_57_TrMRF]”, the “folding stability dG unfold” value was determined as 0.00539 ± 0.502 kJ/mol in data set [1], 2.69 ± 0.879 kJ/mol in data set [2] and 1.79 ± 0.879 kJ/mol in data set [3].
On the same counts, the results for “SMKLIGYDPVTGKPVTLTFDPETKTVTVTHPNGEKITAPAESITFDPETGTVTITLPTKTVTFYVPPEANSA [r9_325_TrMRF]” are 16.3 ± 1.13 kJ/mol, 20.6 ± 0.502 kJ/mol and 20.2 ± 0.837 kJ/mol.
The matching figures for “SMKPGDWKWIMFRFPDAENMEITIPIPLPPGYRVWFFFMNGERHEIPAGQEIKFKMPPGEPMWMMIWIWKSA [r9_79_TrROS]”: 15.3 ± 0.46 kJ/mol, 19.7 ± 0.418 kJ/mol and 17 ± 1.09 kJ/mol.
As for “SMKPGEVKELTLKLTIPVKPGEITVTLVLKLEDGRYVVVESRATVKEDGTIEIEVKIRVYDPKTNEWKELSA [r9_349_TrROS_Hall]”, the “folding stability dG unfold” value was determined as 9.93 ± 0.795 kJ/mol in data set [1], 13.7 ± 0.753 kJ/mol in data set [2] and 12.1 ± 1.46 kJ/mol in data set [3].
On the same counts, the results for “SMKPGQTVTFNVMIRMKDPNMTAQEFAEEAADEIAENFPPGVKIEIKVDDIEPDPPNGEVYFMVKITITVSA [r9_706_TrROS]” are 10.6 ± 0.711 kJ/mol, 16.7 ± 0.544 kJ/mol and 14 ± 0.962 kJ/mol.
The matching figures for “SMKPITLEEALKLAEKLIEEGAKEVVIIRREDGTLLAIMEAEEASPEKVKEFLEANPNVRVLRITGSKEESA [r9_568_TrMRF]”: 13.2 ± 0.628 kJ/mol, 13 ± 0.188 kJ/mol and 12.8 ± 0.502 kJ/mol.
On the same counts, the results for “SMKPPVVEIKAKVVEVKEVNGKLYVKVEITEIKDAPPEVKELIKEGKTILVEVKPGEEVKEGDEVTIKIVSA [r9_557_TrROS_Hall]” are 10.3 ± 0.879 kJ/mol, 8.51 ± 0.92 kJ/mol and 9.7 ± 1.26 kJ/mol.
Consider “SMKPVKITEVTEDTITVTVTVYDKETNRLVKVTAEITFDKETKKLTIKVKVEVLPPLSEEQRKALEEALKSA [r9_1038_TrROS_Hall]”, for which the “folding stability dG unfold” value in data set [1] was 8.26 ± 0.318 kJ/mol; in data set [2] it was 12.3 ± 0.293 kJ/mol; in data set [3] it was 11.5 ± 0.711 kJ/mol.
Regarding “SMKSEEEKKAKELKKQKPVIVFDKETGKITVYDAKTGKKIEIEVKVKKTKDGKVEPLTEEELKKLLKKLASA [r9_1056_TrROS_Hall]”, the “folding stability dG unfold” value in data set [1] was 6.8 ± 0.322 kJ/mol; in data set [2], 4.96 ± 1.17 kJ/mol; in data set [3] it was 4.67 ± 1.59 kJ/mol.
As to “SMKSKIEVKTVTFTFSPDDPLAKTPLEEIISEKAKKEGKKIEIPSYSYTSTDPAKGTKTYTFTVKIIKEESA [r9_107_JUSTAS]”, the “folding stability dG unfold” value in data set [1] is 0.509 ± 0.669 kJ/mol; in data set [2] it was 3.34 ± 0.879 kJ/mol; in data set [3] it was 2.23 ± 0.586 kJ/mol.
On the same counts, the results for “SMKTVVIKIRKKDGKVTLEEIREAIKALLPPGAKVKLTEEELEKLVEELEKKTGKEITADDLVIVVEVEPSA [r9_197_TrROS_Hall]” are 9.59 ± 0.356 kJ/mol, 10.8 ± 0.339 kJ/mol and 10.5 ± 0.669 kJ/mol.
The matching figures for “SMKVEIEEEVEGDRITLTIKFDDEEEAEKAIKELAKELGIPMKVLSRESEKLPGGEYKLTITGEVPPDLKSA [r9_102_JUSTAS]”: 0.802 ± 0.347 kJ/mol, 4.59 ± 1 kJ/mol and 2.21 ± 1 kJ/mol.
“SMKVTLDGKGSVTTMPAEQLEVLIKELKEKGYKVKILSEEPDPNSDTVNYTIEITPPKPEKEEFENEELKSA [r9_448_JUSTAS]”: the “folding stability dG unfold” value in data set [1] was found to be 3.97 ± 0.163 kJ/mol; in data set [2], 8.1 ± 0.502 kJ/mol; in data set [3], 6.64 ± 0.502 kJ/mol.
The matching figures for “SMKVTVTVERLPDGRGRITITINDSTLEIEVPPGLDPEELRAFAEETAKEIEEKLKEEGNPVTIEEITLSSA [r9_751_JUSTAS]”: 10.8 ± 0.586 kJ/mol, 6.74 ± 0.586 kJ/mol and 9.01 ± 1 kJ/mol.
As to “SMKVYVKVLPPEYAVAYIYTDKKYEIPIPTTDLEEARAQIEEIVNEIEKRTGVKAEVEITEVAPDTKIPLSA [r9_786_JUSTAS]”, the “folding stability dG unfold” value in data set [1] amounted to 0.762 ± 0.628 kJ/mol; in data set [2], 3.88 ± 0.544 kJ/mol; in data set [3], 3.1 ± 0.92 kJ/mol.
Consider “SMKYVKILLTLKGKPHVITIPSSLSLEEIIDKAIEFAKELGYKDIPKEELKILKVEENPDEEGSSSIIIGSA [r9_1053_TrMRF]”, for which the “folding stability dG unfold” value in data set [1] was 14.5 ± 0.837 kJ/mol; in data set [2], 15.6 ± 0.176 kJ/mol; in data set [3], 15.1 ± 0.586 kJ/mol.
The matching figures for “SMLKEIPITVPEEGEVVTVNIEELAKEQGLDPNNVTVTVTSSGPGKVYKITISSNGITITEVGNVPTALLSA [r9_819_JUSTAS]”: 2.28 ± 0.167 kJ/mol, 2.86 ± 0.41 kJ/mol and 3 ± 0.339 kJ/mol.
As for “SMLLIKITVKNPDGEEKEIVLSAEELRKLFEEETGEEYSLEEIAERLKKLFPNAKVEIVPLEELSEEELKSA [r9_1085_TrROS_Hall]”, the “folding stability dG unfold” value in data set [1] is 11.6 ± 0.305 kJ/mol; in data set [2] it was 15 ± 0.285 kJ/mol; in data set [3] it was 13.8 ± 0.502 kJ/mol.
In the case of “SMLVLRLPDNRLAVLEYDPETKRLRVLVVDPESGRLTVAEIHPETGEITVDEYTLLPNGEPLPHRFELPLSA [r9_1073_TrMRF]”, the entries for the “folding stability dG unfold” value in data set [1], in data set [2] and in data set [3] were 11.9 ± 0.414 kJ/mol, 10.6 ± 0.201 kJ/mol and 11.4 ± 0.243 kJ/mol, respectively.
As to “SMLYRVTTVVVRGDRPLVIPVLADSLEAFLEEAREAIPPELREELPPDAVVRVFVEPVPAVVPEPGEPLPSA [r9_111_TrMRF]”, the “folding stability dG unfold” value in data set [1] was 5.96 ± 0.238 kJ/mol; in data set [2] it was 8.5 ± 0.289 kJ/mol; in data set [3] it was 7.41 ± 1.05 kJ/mol.
Consider “SMMIKVKITITNEKGEEVEIEIVASPEEIEEALRKLLPPGAKVEIEKIEFYPLEELKPGDVIKITVRVKPSA [r9_803_TrROS_Hall]”, for which the “folding stability dG unfold” value in data set [1] was determined as 11.9 ± 0.46 kJ/mol; in data set [2], 18.7 ± 2.26 kJ/mol; in data set [3] it was 15.5 ± 1.42 kJ/mol.
